Source: PMC8716947

Test system: T1, KguR (MBP-KguR-His6) (Escherichia coli (uropathogenic, CFT073)), ORF:aaa0ecb8
T1 sequence: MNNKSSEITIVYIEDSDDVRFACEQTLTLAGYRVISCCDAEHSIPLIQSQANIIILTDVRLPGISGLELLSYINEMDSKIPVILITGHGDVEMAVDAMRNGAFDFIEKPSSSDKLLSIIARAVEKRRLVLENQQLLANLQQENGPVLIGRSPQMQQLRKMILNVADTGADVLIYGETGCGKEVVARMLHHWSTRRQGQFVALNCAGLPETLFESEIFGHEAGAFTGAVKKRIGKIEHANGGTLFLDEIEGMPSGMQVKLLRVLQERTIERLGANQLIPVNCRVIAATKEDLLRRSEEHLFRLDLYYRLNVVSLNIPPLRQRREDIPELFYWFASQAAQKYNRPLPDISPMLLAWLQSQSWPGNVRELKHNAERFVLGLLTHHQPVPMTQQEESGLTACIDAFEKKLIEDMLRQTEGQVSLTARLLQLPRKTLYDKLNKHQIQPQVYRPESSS
Assay: EMSA

In the case of “CATTCATCATCCATTGAATGCATTTATATTTATCATCAGTATATTCCCTGAACAATGTTTGCGAGAACCAAAAGAGTGCCATTGTGTGAATGTGTAAGCAGAATAACCGTGGCAATGTGTGGTTTATCGCACAGGTATTCCAAATGTGATCATGCTCTTTTTATGTGACAAATCCGCAGATAATCCTTCCTTTCCCCCGCGGTTGGCGTTATGGTCAGATGGTT (double strand) [PkguS]”, the binding is reported as “binds”.
